Experimental data published in patent publication US20160194394A1 (GOVERNING COUNCIL OF THE UNIVERSITY OF TORONTO, published 2016).
Read-outs that look alike come from different tables or passages of the source.

B1: Fab H1 (Fab)
chain 1: EVQLVESGGGLVQPGGSLRLSCAASGFNISSSYIHWVRQAPGKGLEWVAYIYSSYGSTYYADSVKGRFTISADTSKNTAYLQMNSLRAEDTAVYYCARASWYALDYWGQGTLVTVSSASTKGPSVFPLAPSSKSTSGGTAALGCLVKDYFPEPVTVSWNSGALTSGVHTFPAVLQSSGLYSLSSVVTVPSSSLGTQTYICNVNHKPSNTKVDKKVEPKSC
chain 2: DIQMTQSPSSLSASVGDRVTITCRASQSVSSAVAWYQQKPGKAPKLLIYSASSLYSGVPSRFSGSRSGTDFTLTISSLQPEDFATYYCQQYWYGVAPITFGQGTKVEIKRTVAAPSVFIFPPSDSQLKSGTASVVCLLNNFYPREAKVQWKVDNALQSGNSQESVTEQDSKDSTYSLSSTLTLSKADYEKHKVYACEVTHQGLSSPVTKSFNRGECGGS
B2: IgG E8 (antibody, V domains shown)
VH: EVQLVESGGGLVQPGGSLRLSCAASGFNIYSSYIHWVRQAPGKGLEWVAYIYSYSGYTYYADSVKGRFTISADTSKNTAYLQMNSLRAEDTAVYYCARWYHPYWYASAIDYWGQGTLVTVSS
VL: DIQMTQSPSSLSASVGDRVTITCRASQSVSSAVAWYQQKPGKAPKLLIYSASSLYSGVPSRFSGSRSGTDFTLTISSLQPEDFATYYCQQVSGGGGLITFGQGTKVEIK
B3: IgG G6 (antibody, V domains shown)
VL: DIQMTQSPSSLSASVGDRVTITCRASQSVSSAVAWYQQKPGKAPKLLIYSASSLYSGVPSRFSGSRSGTDFTLTISSLQPEDFATYYCQQYYSLFTFGQGTKVEIK
VH: EVQLVESGGGLVQPGGSLRLSCAASGFNIYYYSMHWVRQAPGKGLEWVAYISPSYGYTYYADSVKGRFTISADTSKNTAYLQMNSLRAEDTAVYYCARGYFYSWGGMDYWGQGTLVTVSS
notes: Fab converted into full-length IgG1, made in 293F cells
B4: Fab E4 (Fab)
chain 1: EVQLVESGGGLVQPGGSLRLSCAASGFNLSYYSMHWVRQAPGKGLEWVASIYPSYGYTYYADSVKGRFTISADTSKNTAYLQMNSLRAEDTAVYYCARPSPGSYHGMDYWGQGTLVTVSSASTKGPSVFPLAPSSKSTSGGTAALGCLVKDYFPEPVTVSWNSGALTSGVHTFPAVLQSSGLYSLSSVVTVPSSSLGTQTYICNVNHKPSNTKVDKKVEPKSC
chain 2: DIQMTQSPSSLSASVGDRVTITCRASQSVSSAVAWYQQKPGKAPKLLIYSASSLYSGVPSRFSGSRSGTDFTLTISSLQPEDFATYYCQQSSYSLITFGQGTKVEIKRTVAAPSVFIFPPSDSQLKSGTASVVCLLNNFYPREAKVQWKVDNALQSGNSQESVTEQDSKDSTYSLSSTLTLSKADYEKHKVYACEVTHQGLSSPVTKSFNRGECGGS

Assays:
[1] = biological target: T1, FZD7 receptor expressed on cells (full-length) (UniProt O75084 33-574, limits assumed); assay: flow cytometry, 200 nM Fab, MDA MB 231 [cont'd]
T1 construct: whole, on cells; MDA MB 231 cells may carry other Frizzled receptors too; also called full-length FZD7 receptor; endogenous receptor on MDA MB 231 cells
Procedure, shortened: (§1)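 EDTA-harvested MDA MB 231 cells, either FZD7-overexpressing or with endogenous receptor, were blocked in 2% FBS/PBS and stained with Fab for 30 min on ice. Detection used anti-F(ab′)₂-APC (1:1000, 15 min on ice), then 1% paraformaldehyde fixation and flow cytometry. Values are percent of cells in positive gates.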

[2] = biological target: T2, recombinant Frizzled receptor 7 (FZD7) cysteine-rich domain (CRD) fused to the Fc region of human IgG (human, UniProt O75084 33-185); assay: competitive ELISA, detected phage-Fab E8
[3] = biological target: T2, recombinant Frizzled receptor 7 (FZD7) …; assay: competitive ELISA, detected phage-Fab G6
[4] = biological target: T2, recombinant Frizzled receptor 7 (FZD7) …; assay: ELISA, 10ug/ml (200nM) Fab [cont'd]
Procedure, shortened: (§2)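 Plates coated with 2 ug/ml FZD7-Fc or Fc protein were probed with bacterially expressed purified Fabs for 1 h at room temperature in 0.5% BSA/0.05% Tween20/PBS. Bound Fab detected with anti-FLAG-HRP for 45 min, developed with TMB and acid stop, and read as absorbance at 450 nm; n.t. = not tested.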

[5] = biological target: T2, recombinant Frizzled receptor 7 (FZD7) …; assay: competitive ELISA, detected phage-Fab H3
[6] = biological target: T2, recombinant Frizzled receptor 7 (FZD7) …; assay: competitive ELISA, detected phage-Fab A1
[7] = biological target: T2, recombinant Frizzled receptor 7 (FZD7) …; assay: competitive ELISA, detected phage-Fab H1
[8] = biological target: T2, recombinant Frizzled receptor 7 (FZD7) …; assay: SPR
mouse Fzd2-Fc = biological target: T3, mouse Fzd2-Fc; assay: SPR
T3 construct: also called mFZD2 ECD; Fzd2 CRD-Fc fusion protein (R&D systems); not shown: exact vendor limits of the CRD construct

[9] = biological target: T2, recombinant Frizzled receptor 7 (FZD7) …; assay: SPR; remark: listed apart in the source
human Fzd1-Fc = biological target: T4, human Fzd1-Fc; assay: SPR
T4 construct: also called FZD1 ECD; Fzd1 CRD-Fc fusion protein (R&D systems); not shown: exact vendor limits of the CRD construct

[10] = biological target: T2, recombinant Frizzled receptor 7 (FZD7) …; assay: competitive ELISA, detected phage-Fab H10
[11] = biological target: T1, FZD7 receptor expressed on cells …; assay: cell-based or functional assay
[12] = biological target: T2, recombinant Frizzled receptor 7 (FZD7) …; assay: competitive ELISA, detected phage-Fab D10
[13] = biological target: T2, recombinant Frizzled receptor 7 (FZD7) …; assay: ELISA, 1ug/ml (20nM) Fab [cont'd]
Procedure, shortened: as §2

[14] = biological target: T2, recombinant Frizzled receptor 7 (FZD7) …; assay: competitive ELISA, detected phage-Fab E4
[15] = biological target: T1, FZD7 receptor expressed on cells …; assay: flow cytometry, 200 nM Fab, FZD7 over-expression line (MDA MB 231) [cont'd]
Procedure, shortened: as §1

[16] = biological target: T2, recombinant Frizzled receptor 7 (FZD7) …; assay: competitive ELISA, detected phage-Fab G2
[17] = biological target: T1, FZD7 receptor expressed on cells …; assay: cell-based or functional assay; remark: listed apart in the source
[18] = biological target: recombinant Frizzled receptor 7 (FZD7) cysteine-rich domain (CRD) fused to the Fc region of human IgG (human, UniProt O75084 33-185); assay: SPR; remark: listed apart in the source
human Fzd5-Fc = biological target: T5, human Fzd5-Fc; assay: SPR
T5 construct: also called FZD5 ECD; Fzd5 CRD-Fc fusion protein (R&D systems); not shown: exact vendor limits of the CRD construct
T5 chain: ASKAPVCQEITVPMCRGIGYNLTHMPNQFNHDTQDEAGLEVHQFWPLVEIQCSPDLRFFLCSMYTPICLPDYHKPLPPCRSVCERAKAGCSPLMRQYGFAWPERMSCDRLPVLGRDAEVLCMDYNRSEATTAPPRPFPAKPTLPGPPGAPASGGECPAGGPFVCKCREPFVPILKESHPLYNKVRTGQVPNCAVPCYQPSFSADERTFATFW

human Fzd8-Fc = biological target: T6, human Fzd8-Fc; assay: SPR
T6 construct: also called FZD8 ECD; Fzd8 CRD-Fc fusion protein (R&D systems); not shown: exact vendor limits of the CRD construct
T6 chain: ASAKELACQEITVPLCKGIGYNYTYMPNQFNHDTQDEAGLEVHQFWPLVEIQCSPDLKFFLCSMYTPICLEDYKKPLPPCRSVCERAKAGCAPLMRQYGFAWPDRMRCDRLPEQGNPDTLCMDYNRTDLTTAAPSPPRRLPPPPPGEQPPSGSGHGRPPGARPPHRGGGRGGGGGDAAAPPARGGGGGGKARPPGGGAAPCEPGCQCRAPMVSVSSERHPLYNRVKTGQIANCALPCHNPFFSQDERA

T3 sequence (chain, as listed by the source limits assumed): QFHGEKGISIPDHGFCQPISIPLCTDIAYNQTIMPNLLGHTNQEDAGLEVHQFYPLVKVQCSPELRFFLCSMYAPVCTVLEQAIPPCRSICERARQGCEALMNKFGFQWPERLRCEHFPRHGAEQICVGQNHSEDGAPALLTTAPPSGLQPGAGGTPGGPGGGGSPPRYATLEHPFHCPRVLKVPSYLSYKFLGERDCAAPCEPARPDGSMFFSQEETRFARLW
T4 sequence (chain, as listed by the source limits assumed): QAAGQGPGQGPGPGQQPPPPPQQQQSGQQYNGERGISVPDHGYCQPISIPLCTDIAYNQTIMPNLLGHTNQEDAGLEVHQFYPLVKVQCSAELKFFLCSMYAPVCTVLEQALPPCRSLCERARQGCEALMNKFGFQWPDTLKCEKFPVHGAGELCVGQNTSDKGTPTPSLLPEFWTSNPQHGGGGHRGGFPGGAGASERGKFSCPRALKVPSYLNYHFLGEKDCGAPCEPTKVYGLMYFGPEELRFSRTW

Binder	% population within the positive gate [1]	% of Fab phage in presence of 750 nM Fab [2]	% of Fab phage in presence of 750 nM Fab [3]	OD 450 [4]	% of Fab phage in presence of 750 nM Fab [5]	% of Fab phage in presence of 750 nM Fab [6]	% of Fab phage in presence of 750 nM Fab [7]	Kd [8]	koff [8]	kon [8]	Kd (mouse Fzd2-Fc)	Kd [9]	Kd (human Fzd1-Fc)	% of Fab phage in presence of 750 nM Fab [10]	decrease in Wnt 3a-induced transcriptional activity (TOP-FLASH luciferase reporter in MDA MB 231 cells, 400 nM Fab) [11]	% of Fab phage in presence of 750 nM Fab [12]	OD 450 [13]	% of Fab phage in presence of 750 nM Fab [14]	% population within the positive gate [15]	% of Fab phage in presence of 750 nM Fab [16]	further results
B1	99%	6.7%	10.4%	3.19	18.3%	4.5%	8.5%	0.537 nM	0.000457 s⁻¹	852000 M⁻¹ s⁻¹	0.57 nM	0.54 nM	0.64 nM	4.3%	> 70%	4.7%	3.2	12%	94.7%	4.5%	
B2																					IC50, Wnt3a-induced Top Flash reporter (% ligand mediated) [17]: 106 nM
B3																					Kd [18]: 0.3 nM
B4	98.8%	5.9%	7.4%	3.27	10.5%	6.5%	21.9%	0.422 nM	0.000803 s⁻¹	1.9e+06 M⁻¹ s⁻¹	0.65 nM	0.42 nM	0.33 nM	3.2%	> 70%	6.1%	3.24	5.1%	93.4%	4.6%	Kd (human Fzd5-Fc): 1.43 nM; Kd (human Fzd8-Fc): 0.88 nM
